Experimental findings from IntAct's records for PubMed 35512704 are described below.

The chains are these.
B1: Mothers against decapentaplegic homolog 4 (Homo sapiens), Q13485 (parent)
chain: MDNMSITNTPTSNDACLSIVHSLMCHRQGGESETFAKRAIESLVKKLKEKKDELDSLITAITTNGAHPSKCVTIQRTLDGRLQVAGRKGFPHVIYARLWRWPDLHKNELKHVKYCQYAFDLKCDSVCVNPYHYERVVSPGIDLSGLTLQSNAPSSMMVKDEYVHDFEGQPSLSTEGHSIQTIQHPPSNRASTETYSTPALLAPSESNATSTANFPNIPVASTSQPASILGGSHSEGLLQIASGPQPGQQQNGFTGQPATYHHNSTTTWTGSRTAPYTPNLPHHQNGHLQHHPPMPPHPGHYWPVHNELAFQPPISNHPAPEYWCSIAYFEMDVQVGETFKVPSSCPIVTVDGYVDPSGGDRFCLGQLSNVHRTEAIERARLHIGKGVQLECKGEGDVWVRCLSDHAVFVQSYYLDREAGRAPGDAVHKIYPSAYIKVFDLRQCHRQMQQQAATAQAAAAAQAAAVAGNIPGPGSVGGIAPAISLSAAAGIGVDDLRRLCILRMSFVKGWGPDYPRQSIKETPCWIEIHLHRALQLLDEVLHTMPIADPQPLD
partner: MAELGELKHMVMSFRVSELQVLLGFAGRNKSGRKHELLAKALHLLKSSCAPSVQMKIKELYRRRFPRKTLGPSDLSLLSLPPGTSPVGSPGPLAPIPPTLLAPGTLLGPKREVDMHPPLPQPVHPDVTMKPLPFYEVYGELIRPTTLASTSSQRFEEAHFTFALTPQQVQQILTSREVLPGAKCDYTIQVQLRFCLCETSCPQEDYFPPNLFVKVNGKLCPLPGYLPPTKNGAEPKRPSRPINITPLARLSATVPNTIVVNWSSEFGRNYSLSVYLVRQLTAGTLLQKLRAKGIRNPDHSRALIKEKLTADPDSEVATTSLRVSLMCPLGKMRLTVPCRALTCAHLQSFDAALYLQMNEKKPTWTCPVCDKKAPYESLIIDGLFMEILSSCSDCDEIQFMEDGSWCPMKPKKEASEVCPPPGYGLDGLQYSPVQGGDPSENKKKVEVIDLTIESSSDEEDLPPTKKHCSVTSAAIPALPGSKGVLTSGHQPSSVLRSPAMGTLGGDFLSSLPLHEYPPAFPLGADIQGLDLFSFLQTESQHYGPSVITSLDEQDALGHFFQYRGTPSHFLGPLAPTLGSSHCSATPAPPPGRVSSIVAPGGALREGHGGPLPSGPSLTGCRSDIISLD
B2: Mothers against decapentaplegic homolog 4 (Homo sapiens), Q13485 (parent)
chain: B1 chain
partner: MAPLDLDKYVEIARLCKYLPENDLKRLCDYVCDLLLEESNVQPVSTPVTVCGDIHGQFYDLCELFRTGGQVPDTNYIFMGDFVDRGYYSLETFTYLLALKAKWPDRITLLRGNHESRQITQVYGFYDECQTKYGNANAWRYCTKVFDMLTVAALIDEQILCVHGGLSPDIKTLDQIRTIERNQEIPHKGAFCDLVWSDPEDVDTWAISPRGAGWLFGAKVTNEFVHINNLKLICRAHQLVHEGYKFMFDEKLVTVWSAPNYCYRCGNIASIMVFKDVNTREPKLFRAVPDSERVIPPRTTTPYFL
B3: Mothers against decapentaplegic homolog 4 (Homo sapiens), Q13485 (parent)
chain: B1 chain
partner: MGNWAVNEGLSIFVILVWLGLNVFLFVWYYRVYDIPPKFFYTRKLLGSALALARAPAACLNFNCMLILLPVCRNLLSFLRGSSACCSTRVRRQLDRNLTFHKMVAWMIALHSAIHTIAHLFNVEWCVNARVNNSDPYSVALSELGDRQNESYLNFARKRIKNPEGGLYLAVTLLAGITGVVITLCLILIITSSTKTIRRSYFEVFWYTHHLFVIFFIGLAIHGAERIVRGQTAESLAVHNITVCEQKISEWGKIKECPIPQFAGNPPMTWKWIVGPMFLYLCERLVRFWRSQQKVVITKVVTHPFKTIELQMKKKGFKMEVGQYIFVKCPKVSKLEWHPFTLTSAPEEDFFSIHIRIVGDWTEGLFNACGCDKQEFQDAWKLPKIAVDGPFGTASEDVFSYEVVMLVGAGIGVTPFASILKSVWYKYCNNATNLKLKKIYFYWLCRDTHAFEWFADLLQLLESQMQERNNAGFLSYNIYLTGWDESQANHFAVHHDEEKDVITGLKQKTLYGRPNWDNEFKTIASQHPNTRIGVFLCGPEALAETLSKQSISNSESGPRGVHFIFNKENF
B4: Mothers against decapentaplegic homolog 4 (Homo sapiens), Q13485 (parent)
chain: B1 chain
partner: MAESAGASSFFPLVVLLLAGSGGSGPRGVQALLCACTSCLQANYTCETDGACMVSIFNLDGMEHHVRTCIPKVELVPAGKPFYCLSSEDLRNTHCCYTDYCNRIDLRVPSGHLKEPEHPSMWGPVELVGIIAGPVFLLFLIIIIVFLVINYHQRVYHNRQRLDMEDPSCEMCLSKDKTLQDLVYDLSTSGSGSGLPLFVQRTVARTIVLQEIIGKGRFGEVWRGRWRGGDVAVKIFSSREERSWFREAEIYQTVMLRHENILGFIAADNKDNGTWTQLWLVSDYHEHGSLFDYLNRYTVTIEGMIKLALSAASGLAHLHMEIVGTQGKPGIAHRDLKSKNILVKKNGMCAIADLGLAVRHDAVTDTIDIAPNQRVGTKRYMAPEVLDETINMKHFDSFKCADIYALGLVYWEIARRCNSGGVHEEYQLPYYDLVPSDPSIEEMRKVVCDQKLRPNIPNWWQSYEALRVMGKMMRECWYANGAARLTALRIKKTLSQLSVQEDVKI
B5: Mothers against decapentaplegic homolog 4 (Homo sapiens), Q13485 (parent)
chain: B1 chain
partner: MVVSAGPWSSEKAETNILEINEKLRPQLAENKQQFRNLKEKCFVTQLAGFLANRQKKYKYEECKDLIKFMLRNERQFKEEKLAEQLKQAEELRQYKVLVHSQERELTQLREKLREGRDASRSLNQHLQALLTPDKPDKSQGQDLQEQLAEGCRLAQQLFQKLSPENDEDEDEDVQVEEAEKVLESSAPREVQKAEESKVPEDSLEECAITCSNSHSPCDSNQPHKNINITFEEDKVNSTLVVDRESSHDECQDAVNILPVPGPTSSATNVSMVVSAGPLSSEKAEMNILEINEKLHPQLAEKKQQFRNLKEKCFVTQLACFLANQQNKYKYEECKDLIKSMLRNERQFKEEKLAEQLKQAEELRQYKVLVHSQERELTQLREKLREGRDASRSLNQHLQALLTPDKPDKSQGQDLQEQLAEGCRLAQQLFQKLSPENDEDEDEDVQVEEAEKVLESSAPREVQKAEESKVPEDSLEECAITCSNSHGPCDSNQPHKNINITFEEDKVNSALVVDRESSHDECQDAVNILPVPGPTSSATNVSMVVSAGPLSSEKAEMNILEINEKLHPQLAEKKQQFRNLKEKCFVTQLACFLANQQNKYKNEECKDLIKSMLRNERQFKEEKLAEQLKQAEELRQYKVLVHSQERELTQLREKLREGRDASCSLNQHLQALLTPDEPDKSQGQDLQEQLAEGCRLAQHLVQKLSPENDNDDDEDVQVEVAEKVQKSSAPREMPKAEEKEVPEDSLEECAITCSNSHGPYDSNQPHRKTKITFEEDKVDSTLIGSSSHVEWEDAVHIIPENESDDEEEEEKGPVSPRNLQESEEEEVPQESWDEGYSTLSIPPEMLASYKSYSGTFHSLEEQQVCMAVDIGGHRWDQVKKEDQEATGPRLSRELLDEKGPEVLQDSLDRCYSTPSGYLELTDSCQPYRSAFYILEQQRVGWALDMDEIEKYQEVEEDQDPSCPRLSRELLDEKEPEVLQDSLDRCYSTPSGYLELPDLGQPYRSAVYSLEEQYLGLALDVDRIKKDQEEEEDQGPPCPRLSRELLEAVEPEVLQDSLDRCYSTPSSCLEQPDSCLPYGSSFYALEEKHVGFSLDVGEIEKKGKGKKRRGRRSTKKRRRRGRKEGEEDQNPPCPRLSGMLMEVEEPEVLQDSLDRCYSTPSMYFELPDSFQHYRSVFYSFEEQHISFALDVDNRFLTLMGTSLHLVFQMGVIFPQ
B6: Mothers against decapentaplegic homolog 4 (Homo sapiens), Q13485 (parent)
chain: B1 chain
partner: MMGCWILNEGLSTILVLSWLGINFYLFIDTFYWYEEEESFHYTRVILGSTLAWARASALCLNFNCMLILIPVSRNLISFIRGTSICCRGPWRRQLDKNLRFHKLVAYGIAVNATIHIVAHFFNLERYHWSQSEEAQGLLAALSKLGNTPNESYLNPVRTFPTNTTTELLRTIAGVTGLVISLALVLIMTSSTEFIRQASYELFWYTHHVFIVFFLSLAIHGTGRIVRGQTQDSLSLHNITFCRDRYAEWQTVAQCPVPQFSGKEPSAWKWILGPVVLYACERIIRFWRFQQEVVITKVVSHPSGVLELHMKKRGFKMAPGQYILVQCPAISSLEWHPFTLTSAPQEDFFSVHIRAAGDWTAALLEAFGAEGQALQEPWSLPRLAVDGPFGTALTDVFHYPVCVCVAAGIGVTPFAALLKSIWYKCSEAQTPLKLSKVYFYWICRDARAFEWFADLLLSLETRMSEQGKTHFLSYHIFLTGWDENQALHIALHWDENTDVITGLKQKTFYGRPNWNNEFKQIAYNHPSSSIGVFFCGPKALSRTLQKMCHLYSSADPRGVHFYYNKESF

One assay covers variants of B1. The following applies: with pias3_human PIAS3, Q9Y6X2.
For the variant G386D, the “effect of a mutation on the interaction” value is “with no effect”.

The next assay covers variants of B1. The settings on record: with pias3_human PIAS3, Q9Y6X2. The source holds these as a separate data set.
For the variant G386D, the “effect of a mutation on the interaction” value was “increasing interaction strength”.

Variants of B2 are the subject of another assay. The following applies: with ppp6_human PPP6C.
R361C: the “effect of a mutation on the interaction” value is reported as “with no effect”.

The variants in another assay derive from B2. The settings on record: with ppp6_human PPP6C. The source holds these as a separate data set.
As to G386D, the “effect of a mutation on the interaction” value is reported as “with no effect”.

Another assay covers variants of B2. The following applies: with ppp6_human PPP6C. This is another data set of the same source.
Turning to G386D, the “effect of a mutation on the interaction” value is given as “increasing interaction strength”.

In the next assay the parent is B3. The settings on record: with cy24b_human CYBB.
On to R361H, for which the “effect of a mutation on the interaction” value is given as “with no effect”.

Variants of B4 are the subject of a further assay. The settings on record: with acv1b_human ACVR1B.
For the variant R361C, the “effect of a mutation on the interaction” value is on record as “with no effect”.

The variants in a further assay derive from B4. The settings on record: with acv1b_human ACVR1B. The source holds these as a separate data set.
For R361H, the “effect of a mutation on the interaction” value is “with no effect”.

Variants of B5 are the subject of a further assay. The following applies: with nbpf1_human NBPF1, Q3BBV0.
Turning to G386D, the “effect of a mutation on the interaction” value is “with no effect”.

A further assay covers variants of B6. The following applies: with nox3_human NOX3, Q9HBY0.
Regarding G386D, the “effect of a mutation on the interaction” value is reported as “with no effect”.

Variants of B6 are the subject of another assay. The settings on record: with nox3_human NOX3, Q9HBY0. This is another data set of the same source.
As for R361H, the “effect of a mutation on the interaction” value is reported as “with no effect”.
